In the supplement of paper PMC12042874:
± gives the uncertainty stated by the source.

assay: amyloid nucleation score (Sup35N fusion, yeast selection) (log enrichment); library NNK3; higher = more nucleation; inactive = no reads after selection
Summary of the method: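 On medium lacking adenine and uracil, psi-negative yeast expressing peptides of 20 random codons fused to Sup35N were grown 7 days at 30°C after a 24-hour induction with 100 μM copper sulfate. Illumina sequencing of input and output plasmid inserts gave the reads, and sequences under 100 input reads were excluded. The nucleation score is the DiMSum log enrichment of output over input reads, centred on the mode score of non-aggregating sequences.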

Substance	amyloid nucleation score
KDSYMSCYKPRYVLPRRIIQ	inactive
KEADSVNDRLVNLLMHGTLC	inactive
KESVYPTWHMRWFVYCELVL	inactive
KFGVLRLVFSTLVSTLSRMV	inactive
KFIWYIDDCWWCTTICSSGG	inactive
KFLRVFVKRTLESLRRVTSV	inactive
KFLYGGFCGWMSAVLNVLYP	-0.364 ± 0.82
KFTFMQIKISPFDTCIQGWW	-0.067 ± 0.4
KFTYSLKLCADFGFLSTWKV	inactive
KFVDDRKVCLVLHH	inactive
KFVQSIIGHWNLGHMPCGSM	0.587 ± 0.17
KGETEPYKDSMLQKLTGQLQ	inactive
KGFRAVCWICIYRDEY	-0.533 ± 0.84
KGGDELYFEELDEWSQGSRR	inactive
KGGWEADLYYVVCLVIISIW	inactive
KGLFWEGYGMMLRLRWWMMV	inactive
KGLSIIWMGQFGGAEFRITG	inactive
KGLVLAYILSRSVFERFKGG	inactive
KGSTSAVIGRYGWLRMRC	inactive
KGSVMTCDSYTCFMLNSEVL	1.47 ± 0.13
KGTMVQTVKSVWLGEHIVLA	inactive
KGWLSSWVA	inactive
KICAK	inactive
KIFYYTWYSLSYTIQLYGLQ	inactive
KIGGVYVLVS	inactive
KINDCYGYYDLYWNWSIVRF	inactive
KIQSMISTITMVFTKLLSHL	-0.546 ± 0.7

Substance	amyloid nucleation score
KIYIILNGWQVSLIDYYGGK	2.58 ± 0.056
KIYWGATLNQTSYRVAVCLT	inactive
KKFGSYEWSRI	inactive
KKSKRISLGR	inactive
KLFRIKNGSVEVIWYRNMCQ	0.973 ± 0.14
KLFVVHSREGEFIFSI	inactive
KLICVRTDWWSCVIISRFSL	inactive
KLRFKLRSLVNNNCGVVTRA	inactive
KLRVFV	inactive
KLTIRYLWYPLEQSGYRTCE	1.06 ± 0.2
KLVATVFTSRCATVWLVQGF	inactive
KLWFGHMPTIF	inactive
KLWPM	inactive
KMACTCAESTVIIS	inactive
KMGPILKCPR	inactive
KMGTRGWLSDIAGNMVYVLC	inactive
KNERVWVSRWETFKLHCSRV	inactive
KNGIITLSSIT	inactive
KNINVLYHICAALKSCAFCT	inactive
KNSTWMSESVNNRFFIQVGA	inactive
KNTSCWAATSADQRRVDFRR	inactive
KPGIRYYFISM	1.52 ± 0.12
KPMGYYLFDVTTELYDNDWF	inactive
KPRVMFMISARVFVNYRICS	inactive
KPVKTWNYLFWMCL	2.49 ± 0.072
KQADVFIIMSRVIGNRGCLF	inactive
KQCIFNISLCSS	0.008 ± 0.42

Substance	amyloid nucleation score
KQKMYTAVPKGIQNILEA	inactive
KRFGKMLLW	inactive
KRFTGSK	inactive
KRGMSHVSVCFIMRCFLYID	inactive
KRHYMGTAQGCMGIVLKVFY	inactive
KRLQWMYYL	inactive
KRMSKKALRLVVSYFSPS	inactive
KRNRRTISLMTKFIMGKPGY	inactive
KRSHY	inactive
KRSPKIQDL	inactive
KRSSA	inactive
KRVRGLALTQIY	0.159 ± 0.45
KSFRIMMLRSWMLRLLKYQL	inactive
KSFWVHMTGAFVCARYWCLP	0.97 ± 0.17
KSGPYAVRLSEISWCDVRAG	0.153 ± 0.88
KSGTCK	inactive
KSMATMSQIVPDSFSEFDWY	inactive
KSMIAGVTMWLLCTVSLSYN	inactive
KSMYWLYCTEWEHSNMHVFM	0.17 ± 0.68
KSVRNTAHLWHCVLTIYVYL	inactive
KSVYMHTGPGKGNRVVEKCM	inactive
KTCIVCMLHL	3.32 ± 0.068
KTLIRASWSLSC	inactive
KTRSAMRDLVVSFWYF	1.65 ± 0.075
KTSVEISN	inactive
